From article PMC11500612, “Differential effects of inosine monophosphate dehydrogenase (IMPDH/GuaB) inhibition in Acinetobacter baumannii and Escherichia coli” (Journal of Bacteriology, 2024)

Target: the molecule itself
Assay: crystal structure

B1: A. baumannii GuaB with CBS domain deletion protein (M1-G488_ΔM93-R201) (enzyme)
chain: MLTIVQEALTFDDVLLLPAYSTVLPKDVSLKTRLTRGIYLNIPLVSAAMDTVTESRMAIAMAQNGGIGILHKNMDIAAQAAEVRRVKKFEAGKAESYPNSCKDDLGRLRVGAAVGTGADTPSRVEALVEAGVDVIVVDTAHGHSAGVIERVRWVKQNFPQVQVIGGNIATGDAALALLDAGADAVKVGIGPGSICTTRIVAGIGMPQISAIDSVASALKDQIPLIADGGIRFSGDMAKAIGAGASTIMVGSLLAGTEEAPGEVEFFQGRYYKAYRGMGSLGAMAGATGSADRYFQDSKAGAEKLVPEGIEGRVPYKGPMGNIVHQMMGGLRSSMGYTGSAVIEDLRQNAKFVKITSAGMSESHVHDVTITKEAPNYRVG
notes: also called A. baumannii GuaBΔCBS; GuaB^Ab; source: expressed, purified, and crystallized as described (28)
Q: Does B1 bind?
A: Result: binds
